The values that follow come from paper doi:10.1101/2020.12.23.424221.

Common to all, as to assay: single-molecule TIRF microscopy
Assay [1] has as its target Taxol-stabilized rhodamine-labeled biotinylated microtubules (bovine) (UniProt Q6B856).
The target is the same in assay [2]. This is another data set of the same source.
For assay [3] the target is unchanged. The source holds these as a separate data set.
Assay [4] shares this target. This is another data set of the same source.
Assay [5] shares this target. This is another data set of the same source.
Assay [6] shares this target. This is another data set of the same source.
Assay [7] has the same target. The source holds these as a separate data set.
Assay [8] shares this target. The source holds these as a separate data set.
For assay [9] the target is unchanged. This is another data set of the same source.
Assay [10] shares this target. The source holds these as a separate data set.
The target is the same in assay [11]. This is another data set of the same source.
For assay [12] the target is unchanged. The source holds these as a separate data set.

Where two headings read alike, the source gives them in different places.

B1: GFP-tagged Kif4A (natural protein)
chain: MKEEVKGIPVRVALRCRPLVPKEISEGCQMCLSFVPGEPQVVVGTDKSFTYDFVFDPSTEQEEVFNTAVAPLIKGVFKGYNATVLAYGQTGSGKTYSMGGAYTAEQENEPTVGVIPRVIQLLFKEIDKKSDFEFTLKVSYLEIYNEEILDLLCPSREKAQINIREDPKEGIKIVGLTEKTVLVALDTVSCLEQGNNSRTVASTAMNSQSSRSHAIFTISLEQRKKSDKNSSFRSKLHLVDLAGSERQKKTKAEGDRLKEGININRGLLCLGNVISALGDDKKGGFVPYRDSKLTRLLQDSLGGNSHTLMIACVSPADSNLEETLNTLRYADRARKIKNKPIVNIDPQTAELNHLKQQVQQLQVLLLQAHGGTLPGSITVEPSENLQSLMEKNQSLVEENEKLSRGLSEAAGQTAQMLERIILTEQANEKMNAKLEELRQHAACKLDLQKLVETLEDQELKENVEIICNLQQLITQLSDETVACMAAAIDTAVEQEAQVETSPETSRSSDAFTTQHALRQAQMSKELVELNKALALKEALARKMTQNDSQLQPIQYQYQDNIKELELEVINLQKEKEELVLELQTAKKDANQAKLSERRRKRLQELEGQIADLKKKLNEQSKLLKLKESTERTVSKLNQEIRMMKNQRVQLMRQMKEDAEKFRQWKQKKDKEVIQLKERDRKRQYELLKLERNFQKQSNVLRRKTEEAAAANKRLKDALQKQREVADKRKETQSRGMEGTAARVKNWLGNEIEVMVSTEEAKRHLNDLLEDRKILAQDVAQLKEKKESGENPPPKLRRRTFSLTEVRGQVSESEDSITKQIESLETEMEFRSAQIADLQQKLLDAESEDRPKQRWENIATILEAKCALKYLIGELVSSKIQVSKLESSLKQSKTSCADMQKMLFEERNHFAEIETELQAELVRMEQQHQEKVLYLLSQLQQSQMAEKQLEESVSEKEQQLLSTLKCQDEELEKMREVCEQNQQLLRENEIIKQKLTLLQVASRQKHLPKDTLLSPDSSFEYVPPKPKPSRVKEKFLEQSMDIEDLKYCSEHSVNEHEDGDGDDDEGDDEEWKPTKLVKVSRKNIQGCSCKGWCGNKQCGCRKQKSDCGVDCCCDPTKCRNRQQGKDSLGTVERTQDSEGSFKLEDPTEVTPGLSFFNPVCATPNSKILKEMCDVEQVLSKKTPPAPSPFDLPELKHVATEYQENKAPGKKKKRALASNTSFFSGCSPIEEEAH
Turning to B1, the lifetime on the microtubule (median) in assay [1] stood at 9 s; in assay [2] it was 1.2 s; in assay [3] it was 17.9 s; in [4], 4.9 s; in assay [5] it was 8.3 s; in [6], 2.1 s. Besides, the lifetime on the microtubule (median) in assay [7] came out at 3.6 s; in assay [8], 1.5 s; in assay [9] it was 1.8 s; in assay [10], 7.2 s; in assay [11] it was 3.9 s; in assay [12], 4.2 s.
